Measured values published in patent JP2014150761A (dated 2014).
Residue numbers refer to the chain shown, from its start. Names may count otherwise.

What was measured:
[1] = target: T1, human beta-NGF (R&D Systems) (human, UniProt P01138 122-241); experiment: cell-based or functional assay
[2] = target: T2, mouse beta-NGF (R&D Systems) (mouse, UniProt P01139 122-241); experiment: cell-based or functional assay
[3] = target: T1, human beta-NGF (R&D Systems); experiment: isothermal titration calorimetry in PBS: 44 μM human βNGF titrated into 1.5 μM Tanezumab, single site binding model
[4] = target: T1, human beta-NGF (R&D Systems); experiment: competition ELISA: inhibition of biotin-human βNGF binding to immobilised human trkA (Example 3)
[5] = target: T1, human beta-NGF (R&D Systems); experiment: papain Fab tested by Examples 3, 6 and 7
[6] = target: T2, mouse beta-NGF (R&D Systems); experiment: competition ELISA with biotin-mouse βNGF on immobilised trkA (Example 4)
[7] = target: T1, human beta-NGF (R&D Systems); experiment: screening by Examples 3 to 8 (NGF-trkA binding inhibition ELISA, cell assays)

B1: Tanezumab (antibody, V domains shown)
VH: QVQLQESGPGLVKPSETLSLTCTVSGFSLIGYDLNWIRQPPGKGLEWIGIIWGDGTTDYNSAVKSRVTISKDTSKNQFSLKLSSVTAADTAVYYCARGGYWYATSYYFDYWGQGTLVTVSS
VL: DIQMTQSPSSLSASVGDRVTITCRASQSISNNLNWYQQKPGKAPKLLIYYTSRFHSGVPSRFSGSGSGTDFTFTISSLQPEDIATYYCQQEHTLPYTFGQGTKLEIKR
[1]
  IC50, neutralizing activity by the method of Example 6 (Ca2+ rise, HEK293 cells expressing human trkA): 0.17 µg/mL
[2]
  IC50, neutralizing activity by the method of Example 6 (Ca2+ rise, HEK293 cells expressing human trkA): 0.23 µg/mL
[3]
  Kd: 20.4 nM
[4]
  IC50: 0.41 µg/mL

B2: PEGylated 1-15(N52D)-Fab' (Fab, V domains shown)
VH: QVQLQQWGAGLLKPSETLSLTCAVYGGSFSGYYWSWVRQPPGKGLEWIGEIDHSGSTNNNPSLKSRVTISVGTSKNQFSLKLSSVTAADTAVYYCSRDGGPESGMGAFDIWGQGTMVTVSS
VL: not shown
modifications: 40 kDa PEG (SUNBRIGHT GL2-400MA, maleimide) on the C-terminal Cys (EU C226; Cys 230 of SEQ ID NO 10)
[2]
  IC50, neutralizing activity by the method of Example 6 (Ca2+ rise, HEK293 cells expressing human trkA): 0.069 µg/mL
  fold stronger neutralizing activity than Tanezumab (method of Example 6): ~3.3 fold

B3: 1-15(N52D-A)-Fab'-5kPEG (Fab, V domains shown)
VH: B2 VH
VL: not shown
modifications: 5 kDa PEG (SUNBRIGHT GL2-50MA) bound by the procedure of Example 13 (hinge Cys)
[1]
  IC50, neutralizing activity by the method of Example 6 (final NGF concentration 50 ng/ml): 0.03 µg/mL

B4: Fab fragment of the 1-15 antibody (papain digest) (Fab, V domains shown)
VH: B2 VH with D52N
VL: not shown
notes: also called 1-15 Fab; 1価の抗体フラグメント
[5]
  binding result: binds

B5: 1-15(N52D-A)-Fab'-10kPEG (Fab, V domains shown)
VH: B2 VH
VL: not shown
modifications: 10 kDa PEG (SUNBRIGHT GL2-100MA) bound by the procedure of Example 13 (hinge Cys)
[1]
  IC50, neutralizing activity by the method of Example 6 (final NGF concentration 50 ng/ml): 0.028 µg/mL

B6: 1-15 antibody (chimeric antibody) (antibody, V domains shown)
VH: B2 VH with D52N
VL: not shown
notes: also called 1−15と命名した抗体(キメラ抗体)
[6]
  binding result: binds
[7]
  binding result: binds
